Columns and labels:
human FcRn = biological target: T1, human FcRn (human, UniProt P55899 24-297; P61769 21-119, limits assumed); experiment: BIAcore solution competition (FIG. 6)
T1 construct: also called neonatal Fc-receptor
Description: (§1) BIAcore analysis of human and mouse FcRn binding to Fc mutant #1 (Fc K392D-K409D, dimer), #2 (Fc K392D-K409D-Y349T, monomeric SEC profile) and #6 (Fc K392D-K409D-Y349T, monomeric SEC profile) using a BIAcore3000 instrument. CHO cell produced huFc was immobilized on follow cell 2 (Fc2) on a CM5 chip. Fc1 was used as background control. 2 nM human FcRn were incubated with 1, 10, 100 nM of indicated Fc variants for one hour before injected to the CHO huFc surface. Reduced binding of FcRn to the immobilized CHO huFc indicates binding of FcRn to the Fc variants in solution. 2 nM mouse FcRn were incubated with 0.1, 1, 10 nM of Fc variants for one hour before injected to the CHO huFc surface.

mouse FcRn = biological target: T2, mouse FcRn (mouse, UniProt Q61559 22-297; P01887 21-119, limits assumed); experiment: BIAcore solution competition (FIG. 6)
T2 sequence (looked up): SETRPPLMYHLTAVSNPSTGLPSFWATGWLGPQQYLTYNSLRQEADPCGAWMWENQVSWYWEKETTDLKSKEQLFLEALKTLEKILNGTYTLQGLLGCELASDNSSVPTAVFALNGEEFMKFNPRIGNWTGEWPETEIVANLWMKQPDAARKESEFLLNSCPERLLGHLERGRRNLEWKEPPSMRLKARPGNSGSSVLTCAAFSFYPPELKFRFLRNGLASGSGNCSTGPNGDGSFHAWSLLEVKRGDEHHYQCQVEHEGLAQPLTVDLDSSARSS
T2 sequence (b2m, looked up): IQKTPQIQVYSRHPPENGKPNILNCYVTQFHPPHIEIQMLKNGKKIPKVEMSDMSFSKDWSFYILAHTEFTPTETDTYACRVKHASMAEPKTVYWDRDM
Description: as §1

binding result (human FcRn): binds
binding result (mouse FcRn): binds
B1: hu IgG1 Fc K392D K409D Y349T (construct 2 of Table 2) (other, human, UniProt P01857-1 114-330, looked up, name in EU numbering)
chain: APELLGGPSVFLFPPKPKDTLMISRTPEVTCVVVDVSHEDPEVKFNWYVDGVEVHNAKTKPREEQYNSTYRVVSVLTVLHQDWLNGKEYKCKVSNKALPAPIEKTISKAKGQPREPQVTTLPPSRDELTKNQVSLTCLVKGFYPSDIAVEWESNGQPENNYDTTPPVLDSDGSFFLYSDLTVDKSRWQQGNVFSCSVMHEALHNHYTQKSLSLSPGK
notes: domain: Fc; Monomer by SEC and AUC; also called Fc mutant #2; Monomer Fc

Reference: patent US20120244578A1 (Amgen, published 2012)
